The results in this text go back to patent US20180305423A1 (OKLAHOMA MEDICAL RESEARCH FOUNDATION, published 2018).

In experiment [1] the target is T1, IP3R1 (IP3 receptor 1, ITPR1) (mouse, UniProt P11881 1-2749, limits assumed).
T1 construct: also called IP3 Receptors
Briefly: IP with epsin 1 antibody from oxLDL-treated MAEC, gel for mass spectrometry [panel A].

Experiment [2] addresses T2, IRS1 (insulin receptor substrate) (UniProt P35569 1-1233).
T2 sequence (looked up): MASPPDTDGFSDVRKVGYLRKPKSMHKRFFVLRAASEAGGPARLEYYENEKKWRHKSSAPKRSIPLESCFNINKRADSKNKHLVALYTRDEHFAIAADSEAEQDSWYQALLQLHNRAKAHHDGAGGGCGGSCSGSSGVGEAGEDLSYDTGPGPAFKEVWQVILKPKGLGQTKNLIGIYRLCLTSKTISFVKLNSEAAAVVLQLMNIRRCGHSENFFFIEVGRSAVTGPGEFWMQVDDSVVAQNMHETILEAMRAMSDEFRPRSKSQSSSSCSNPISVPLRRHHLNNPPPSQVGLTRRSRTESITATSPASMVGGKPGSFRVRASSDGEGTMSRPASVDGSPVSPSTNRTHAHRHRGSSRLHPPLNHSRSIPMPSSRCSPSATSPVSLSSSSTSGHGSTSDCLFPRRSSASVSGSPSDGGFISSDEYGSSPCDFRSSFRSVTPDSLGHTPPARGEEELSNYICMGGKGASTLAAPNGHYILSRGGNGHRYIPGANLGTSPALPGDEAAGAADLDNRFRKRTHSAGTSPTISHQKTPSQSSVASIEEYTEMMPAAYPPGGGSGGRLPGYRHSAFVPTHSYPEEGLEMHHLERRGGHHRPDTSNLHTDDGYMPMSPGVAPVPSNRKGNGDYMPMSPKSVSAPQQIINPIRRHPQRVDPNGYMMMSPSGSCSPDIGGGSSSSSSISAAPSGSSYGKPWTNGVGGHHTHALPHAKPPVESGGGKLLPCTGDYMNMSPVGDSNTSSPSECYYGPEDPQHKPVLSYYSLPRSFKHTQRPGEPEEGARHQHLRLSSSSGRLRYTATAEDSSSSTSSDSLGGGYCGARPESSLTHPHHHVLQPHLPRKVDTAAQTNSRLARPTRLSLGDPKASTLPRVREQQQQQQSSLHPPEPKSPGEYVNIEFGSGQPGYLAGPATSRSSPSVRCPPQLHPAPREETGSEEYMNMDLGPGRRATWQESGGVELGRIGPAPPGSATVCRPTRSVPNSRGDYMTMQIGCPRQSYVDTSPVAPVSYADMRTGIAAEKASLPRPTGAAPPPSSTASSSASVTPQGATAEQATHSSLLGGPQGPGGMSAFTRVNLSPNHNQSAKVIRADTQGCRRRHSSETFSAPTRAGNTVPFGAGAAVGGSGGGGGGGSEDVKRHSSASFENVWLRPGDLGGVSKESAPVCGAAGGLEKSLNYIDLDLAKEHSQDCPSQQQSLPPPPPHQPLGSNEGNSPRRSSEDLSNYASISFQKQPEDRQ
Description: co-IP with anti-epsin 1 from 3T3-L1 pre-adipocytes with or without insulin, blot for IRS1.

The target in experiment [3] is T3, VEGFR2 (endogenous, HUVEC^αvβ3 cells) (human, UniProt P35968 20-1356).
T3 construct: whole, on cells
Description: co-IP with anti-VEGFR2 from HUVECαvβ3 cells, blot for Epn1, with quantification [panel B].

T1 sequence (P11881 whole entry): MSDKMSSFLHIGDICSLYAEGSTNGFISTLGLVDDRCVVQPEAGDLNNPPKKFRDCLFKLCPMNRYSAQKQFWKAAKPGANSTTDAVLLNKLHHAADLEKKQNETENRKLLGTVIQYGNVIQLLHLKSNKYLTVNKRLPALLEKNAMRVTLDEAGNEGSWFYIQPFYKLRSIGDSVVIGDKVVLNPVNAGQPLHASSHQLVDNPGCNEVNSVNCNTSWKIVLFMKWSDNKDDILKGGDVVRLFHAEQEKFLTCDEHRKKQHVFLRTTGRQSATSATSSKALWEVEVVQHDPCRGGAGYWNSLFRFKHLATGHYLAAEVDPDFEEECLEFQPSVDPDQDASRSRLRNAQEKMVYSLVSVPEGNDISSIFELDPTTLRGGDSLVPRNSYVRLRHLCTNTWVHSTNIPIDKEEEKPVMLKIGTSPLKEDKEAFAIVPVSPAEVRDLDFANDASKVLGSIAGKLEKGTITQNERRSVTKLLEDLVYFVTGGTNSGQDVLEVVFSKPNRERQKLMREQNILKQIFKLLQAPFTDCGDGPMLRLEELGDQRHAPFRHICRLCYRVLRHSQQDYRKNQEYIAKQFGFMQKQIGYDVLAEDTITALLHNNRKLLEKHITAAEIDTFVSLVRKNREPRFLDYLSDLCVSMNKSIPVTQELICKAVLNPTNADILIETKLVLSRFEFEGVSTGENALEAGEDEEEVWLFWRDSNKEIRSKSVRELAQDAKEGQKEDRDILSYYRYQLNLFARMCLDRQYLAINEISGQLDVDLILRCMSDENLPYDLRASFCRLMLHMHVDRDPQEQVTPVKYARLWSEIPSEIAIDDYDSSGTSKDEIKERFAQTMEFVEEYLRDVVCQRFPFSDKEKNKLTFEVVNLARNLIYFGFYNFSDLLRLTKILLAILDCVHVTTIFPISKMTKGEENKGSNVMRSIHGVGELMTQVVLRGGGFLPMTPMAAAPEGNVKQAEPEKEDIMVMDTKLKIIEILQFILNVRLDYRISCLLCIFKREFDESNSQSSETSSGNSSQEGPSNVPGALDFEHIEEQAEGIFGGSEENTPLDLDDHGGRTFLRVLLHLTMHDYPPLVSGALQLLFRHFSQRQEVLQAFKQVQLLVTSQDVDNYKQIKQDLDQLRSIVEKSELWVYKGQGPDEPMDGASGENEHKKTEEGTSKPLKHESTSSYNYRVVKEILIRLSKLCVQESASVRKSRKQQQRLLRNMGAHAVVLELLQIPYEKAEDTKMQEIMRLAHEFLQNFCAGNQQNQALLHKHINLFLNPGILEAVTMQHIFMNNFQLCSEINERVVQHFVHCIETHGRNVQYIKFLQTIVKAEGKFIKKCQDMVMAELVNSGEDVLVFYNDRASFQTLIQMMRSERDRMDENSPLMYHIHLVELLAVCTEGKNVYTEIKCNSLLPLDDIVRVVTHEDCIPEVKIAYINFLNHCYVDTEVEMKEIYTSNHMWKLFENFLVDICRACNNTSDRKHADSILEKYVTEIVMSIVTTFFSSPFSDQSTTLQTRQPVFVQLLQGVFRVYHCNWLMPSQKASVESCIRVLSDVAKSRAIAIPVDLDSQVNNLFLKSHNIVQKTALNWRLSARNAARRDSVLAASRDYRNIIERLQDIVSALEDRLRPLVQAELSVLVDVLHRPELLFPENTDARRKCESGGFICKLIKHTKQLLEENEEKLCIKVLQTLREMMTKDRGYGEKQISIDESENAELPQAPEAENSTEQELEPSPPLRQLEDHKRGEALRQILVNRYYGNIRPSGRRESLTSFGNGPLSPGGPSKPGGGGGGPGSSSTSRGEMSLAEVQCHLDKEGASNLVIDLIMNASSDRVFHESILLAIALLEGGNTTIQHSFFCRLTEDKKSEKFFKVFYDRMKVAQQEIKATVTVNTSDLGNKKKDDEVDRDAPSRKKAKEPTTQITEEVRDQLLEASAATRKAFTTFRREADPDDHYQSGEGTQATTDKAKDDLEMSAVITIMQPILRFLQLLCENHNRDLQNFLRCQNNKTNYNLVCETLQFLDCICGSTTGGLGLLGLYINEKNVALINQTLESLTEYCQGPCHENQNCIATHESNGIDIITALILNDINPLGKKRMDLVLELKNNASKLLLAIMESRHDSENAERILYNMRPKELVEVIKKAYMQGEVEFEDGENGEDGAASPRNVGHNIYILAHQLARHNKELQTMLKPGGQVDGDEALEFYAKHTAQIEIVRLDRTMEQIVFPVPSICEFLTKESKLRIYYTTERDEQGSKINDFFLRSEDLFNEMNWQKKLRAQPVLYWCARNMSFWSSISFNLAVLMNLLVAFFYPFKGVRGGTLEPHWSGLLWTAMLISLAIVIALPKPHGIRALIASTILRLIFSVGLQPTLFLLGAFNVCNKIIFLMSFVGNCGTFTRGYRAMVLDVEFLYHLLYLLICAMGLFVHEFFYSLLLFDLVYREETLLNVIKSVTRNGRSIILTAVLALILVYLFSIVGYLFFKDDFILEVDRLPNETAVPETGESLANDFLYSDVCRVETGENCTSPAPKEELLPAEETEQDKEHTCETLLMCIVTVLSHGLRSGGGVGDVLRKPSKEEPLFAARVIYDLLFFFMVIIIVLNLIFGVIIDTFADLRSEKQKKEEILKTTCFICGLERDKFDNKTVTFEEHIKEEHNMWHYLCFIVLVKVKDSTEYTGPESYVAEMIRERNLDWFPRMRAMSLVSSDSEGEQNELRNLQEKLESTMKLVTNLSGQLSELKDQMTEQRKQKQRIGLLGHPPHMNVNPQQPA
T3 sequence (P35968 20-1356): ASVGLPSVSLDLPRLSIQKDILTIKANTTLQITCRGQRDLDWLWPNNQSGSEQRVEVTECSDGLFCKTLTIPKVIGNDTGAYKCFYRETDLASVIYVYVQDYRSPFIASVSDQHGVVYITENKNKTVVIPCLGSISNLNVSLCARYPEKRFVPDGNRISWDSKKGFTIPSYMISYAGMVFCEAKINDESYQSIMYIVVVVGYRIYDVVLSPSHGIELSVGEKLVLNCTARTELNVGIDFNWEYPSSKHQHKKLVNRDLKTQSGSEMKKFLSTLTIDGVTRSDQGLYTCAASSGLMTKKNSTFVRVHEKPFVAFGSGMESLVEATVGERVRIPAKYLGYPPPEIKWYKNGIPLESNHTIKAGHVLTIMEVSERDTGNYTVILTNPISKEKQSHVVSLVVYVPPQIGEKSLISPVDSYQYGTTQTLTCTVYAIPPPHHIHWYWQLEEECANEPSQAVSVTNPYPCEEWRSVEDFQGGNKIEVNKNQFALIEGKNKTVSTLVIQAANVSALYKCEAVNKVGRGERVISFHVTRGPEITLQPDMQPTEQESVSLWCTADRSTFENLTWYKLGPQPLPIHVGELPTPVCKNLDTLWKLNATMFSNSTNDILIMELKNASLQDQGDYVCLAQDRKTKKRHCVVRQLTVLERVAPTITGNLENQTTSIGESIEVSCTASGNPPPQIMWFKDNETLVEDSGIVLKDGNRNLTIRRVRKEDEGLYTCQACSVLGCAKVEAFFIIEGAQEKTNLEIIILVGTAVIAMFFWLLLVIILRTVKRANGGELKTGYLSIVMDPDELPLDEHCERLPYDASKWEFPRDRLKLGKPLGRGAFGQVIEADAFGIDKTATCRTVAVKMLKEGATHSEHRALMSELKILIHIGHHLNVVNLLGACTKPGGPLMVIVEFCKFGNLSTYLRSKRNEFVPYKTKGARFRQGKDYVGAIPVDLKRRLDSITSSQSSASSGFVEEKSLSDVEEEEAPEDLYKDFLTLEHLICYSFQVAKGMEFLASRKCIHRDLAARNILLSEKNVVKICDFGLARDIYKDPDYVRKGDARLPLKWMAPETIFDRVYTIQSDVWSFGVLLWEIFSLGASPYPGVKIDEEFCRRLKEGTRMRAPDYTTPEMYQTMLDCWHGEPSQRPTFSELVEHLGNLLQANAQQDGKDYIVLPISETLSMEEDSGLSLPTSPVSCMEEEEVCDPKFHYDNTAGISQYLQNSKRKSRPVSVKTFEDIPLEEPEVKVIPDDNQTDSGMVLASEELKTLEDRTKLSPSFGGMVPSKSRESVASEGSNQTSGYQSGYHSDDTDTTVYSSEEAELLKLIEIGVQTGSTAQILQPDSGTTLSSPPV

B1: Epsin 1 (endogenous, MAEC and 3T3-L1 cells) (other, mouse, UniProt Q80VP1 1-575, looked up)
chain: MSTSSLRRQMKNIVHNYSEAEIKVREATSNDPWGPSSSLMSEIADLTYNVVAFSEIMSMIWKRLNDHGKNWRHVYKAMTLMEYLIKTGSERVSQQCKENMYAVQTLKDFQYVDRDGKDQGVNVREKAKQLVALLRDEDRLREERAHALKTKEKLAQTATASSAAVGSGPPPEAEQAWPQSSGEEELQLQLALAMSKEEADQPPSCGPEDDVQLQLALSLSREEHDKEERIRRGDDLRLQMAIEESKRETGGKEESSLMDLADVFTTPAPPQASDPWGGPASVPTAVPVAAAASDPWGGPAVPPAADPWGGAAPTPASGDPWRPAAPTGPSVDPWGGTPAPAAGEGPTPDPWGSSDGGAPVSGPPSSDPWAPAPAFSDPWGGSPAKPSSNGTAVGGFDTEPDEFSDFDRLRTALPTSGSSTGELELLAGEVPARSPGAFDMSGVGGSLAESVGSPPPAATPTPTPPTRKTPESFLGPNAALVDLDSLVSRPGPTPPGSKASNPFLPSGAPPTGPSVTNPFQPAPPATLTLNQLRLSPVPPVPGAPPTYISPLGGGPGLPPMMPPGPPAPNTNPFLL
notes: also called epsins
In the case of B1, the binding result in experiment [1] and in experiment [2] was “binds” throughout.

B2: Epsin 1 (endogenous, HUVEC^αvβ3 cells) (other, human, UniProt Q9Y6I3 1-576, looked up)
chain: MSTSSLRRQMKNIVHNYSEAEIKVREATSNDPWGPSSSLMSEIADLTYNVVAFSEIMSMIWKRLNDHGKNWRHVYKAMTLMEYLIKTGSERVSQQCKENMYAVQTLKDFQYVDRDGKDQGVNVREKAKQLVALLRDEDRLREERAHALKTKEKLAQTATASSAAVGSGPPPEAEQAWPQSSGEEELQLQLALAMSKEEADQPPSCGPEDDAQLQLALSLSREEHDKEERIRRGDDLRLQMAIEESKRETGGKEESSLMDLADVFTAPAPAPTTDPWGGPAPMAAAVPTAAPTSDPWGGPPVPPAADPWGGPAPTPASGDPWRPAAPAGPSVDPWGGTPAPAAGEGPTPDPWGSSDGGVPVSGPSASDPWTPAPAFSDPWGGSPAKPSTNGTTAAGGFDTEPDEFSDFDRLRTALPTSGSSAGELELLAGEVPARSPGAFDMSGVRGSLAEAVGSPPPAATPTPTPPTRKTPESFLGPNAALVDLDSLVSRPGPTPPGAKASNPFLPGGGPATGPSVTNPFQPAPPATLTLNQLRLSPVPPVPGAPPTYISPLGGGPGLPPMMPPGPPAPNTNPFLL
notes: also called endogenous epsin 1
Regarding B2, the binding result in experiment [3] is “binds”.
